Results: patent publication US20250163127A1
Like-named read-outs stand apart in the source and are kept apart here.

Tests used:
[1] = molecular target: CTLA-4 (Homo sapiens (Human)) (UniProt P16410); experiment: flow cytometry, transfected cells
CD28 (human) [2] = molecular target: CD28 (human) (UniProt P10747); experiment: flow cytometry, transfected cells
PD-L1 (human) [3] = experiment: flow cytometry, cells expressing PD-L1
CD28 (human) [4] = molecular target: CD28 (human) (UniProt P10747); experiment: flow cytometry, Jurkat cells (CD28)
CTLA-4 (human) [5] = experiment: flow cytometry, CHO cells expressing CTLA4
Target sequence in this assay (chain, as listed by the source): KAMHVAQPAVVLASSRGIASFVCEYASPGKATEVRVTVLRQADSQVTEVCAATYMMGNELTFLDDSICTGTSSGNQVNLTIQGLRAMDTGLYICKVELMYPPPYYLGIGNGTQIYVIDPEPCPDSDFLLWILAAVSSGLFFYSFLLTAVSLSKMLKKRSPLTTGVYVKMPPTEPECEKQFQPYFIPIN

PD-L1 (human) [6] = experiment: flow cytometry, CHO cells expressing PD-L1
Target sequence in this assay (chain, as listed by the source): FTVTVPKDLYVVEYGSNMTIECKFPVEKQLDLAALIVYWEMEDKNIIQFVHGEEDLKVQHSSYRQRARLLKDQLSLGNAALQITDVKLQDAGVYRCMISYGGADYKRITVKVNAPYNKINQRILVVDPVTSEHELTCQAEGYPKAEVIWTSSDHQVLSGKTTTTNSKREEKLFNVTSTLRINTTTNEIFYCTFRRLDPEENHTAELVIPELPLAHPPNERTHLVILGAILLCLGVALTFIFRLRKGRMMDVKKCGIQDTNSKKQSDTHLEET

CD86 (human) = CD86 (human) (UniProt P42081); experiment: flow cytometry, cells expressing the partner
CD80 (human) = CD80 (human) (UniProt P33681); experiment: flow cytometry, cells expressing the partner
Chain of CD80 (human) (P33681 35-288): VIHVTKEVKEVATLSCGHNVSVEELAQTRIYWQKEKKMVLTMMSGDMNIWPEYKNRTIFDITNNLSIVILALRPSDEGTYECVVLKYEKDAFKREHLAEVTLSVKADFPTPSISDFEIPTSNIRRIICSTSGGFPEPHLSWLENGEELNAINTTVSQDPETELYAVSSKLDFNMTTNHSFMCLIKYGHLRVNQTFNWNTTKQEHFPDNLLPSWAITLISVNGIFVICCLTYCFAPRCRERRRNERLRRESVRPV

CD28 (human) [7] = molecular target: CD28 (human) (UniProt P10747); experiment: flow cytometry, cells expressing CD28
CTLA-4 (human) [8] = experiment: flow cytometry, cells expressing CTLA-4
CTLA4 (human) = experiment: flow cytometry, CHO cells stably expressing CTLA4
CD28 (human) [9] = molecular target: CD28 (human) (UniProt P10747); experiment: flow cytometry, Jurkat cells (CD28); remark: listed apart in the source
PD-L1 (human) [10] = experiment: flow cytometry, CHO cells stably expressing PD-L1
[11] = molecular target: ICOS (Homo sapiens (Human)) (UniProt Q9Y6W8); experiment: flow cytometry, transfected cells
Chain of ICOS (Homo sapiens (Human)) (Q9Y6W8 21-199 limits assumed): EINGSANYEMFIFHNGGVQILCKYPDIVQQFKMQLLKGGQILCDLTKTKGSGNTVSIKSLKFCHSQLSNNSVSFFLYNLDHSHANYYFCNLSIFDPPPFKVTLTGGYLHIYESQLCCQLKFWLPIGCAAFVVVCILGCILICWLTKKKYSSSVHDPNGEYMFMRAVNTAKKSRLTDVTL

[12] = molecular target: CD28, full-length, expressed on transfected cells (Homo sapiens (Human)) (UniProt P10747); experiment: flow cytometry, cells expressing target

Chain of WT CD80 (Fc fusion) (chain): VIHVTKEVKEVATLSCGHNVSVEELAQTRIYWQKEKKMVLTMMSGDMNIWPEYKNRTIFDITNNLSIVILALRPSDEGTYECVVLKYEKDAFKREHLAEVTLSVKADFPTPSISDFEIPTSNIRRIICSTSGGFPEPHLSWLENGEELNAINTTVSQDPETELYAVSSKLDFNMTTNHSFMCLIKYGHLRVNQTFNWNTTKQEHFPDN

Substance ICOSL-Fc N52R/N57F/Q100P (Fc fusion) has an MFI [1] of 504000 MFI and an MFI (CD28 (human) [2]) of 154000 MFI.
WT CD80 (Fc fusion) showed an MFI (PD-L1 (human) [3]) of 70 MFI.
“variant CD80 E35D/T41S/M43I/M47L/A71G (Fc fusion)” showed an MFI at 33.3 nM (CD28 (human) [4]) of 3100 MFI and an MFI at 33.3 nM (CTLA-4 (human) [5]) of 209000 MFI.
ICOSL-Fc N52D/N57A/Q100A (Fc fusion) was tested, and the MFI [1] was 340000 MFI and the MFI (CD28 (human) [2]) was 138000 MFI.
For ICOSL-Fc N52R/N57F/Q100R (Fc fusion), the MFI [1] was 464000 MFI and the MFI (CD28 (human) [2]) was 185000 MFI.
In the case of “variant CD80 E35D/M43I/M47V/K89N (Fc fusion)”, the MFI at 33.3 nM (PD-L1 (human) [6]) is reported as 19200 MFI and the MFI at 33.3 nM (CTLA-4 (human) [5]) is reported as 278000 MFI.
Substance CTLA-4 ECD-Fc L98R/N110K (Fc fusion) has an MFI (CD86 (human)) of 665000 MFI and an MFI (CD80 (human)) of 2110 MFI.
“variant CD80 I30V/E35D/M47V/A71G/A91V (Fc fusion)” gave an MFI at 33.3 nM (PD-L1 (human) [6]) of 43900 MFI and an MFI at 33.3 nM (CTLA-4 (human) [5]) of 205000 MFI.
variant CD80 E35D/M47V/A71G (Fc fusion) was tested, and the MFI at 33.3 nM (CD28 (human) [4]) was 6360 MFI and the MFI at 33.3 nM (PD-L1 (human) [6]) was 36200 MFI.
“variant CD80 V20L/L70Q/A91S/I118V/T120S/T130A (Fc fusion)” gave an MFI (CD28 (human) [7]) of 105 MFI, an MFI (PD-L1 (human) [3]) of 9 MFI and a parental ratio (PD-L1 (human) [3]) of 0.13. It also gave an MFI (CTLA-4 (human) [8]) of 200 MFI and a parental ratio (CTLA-4 (human) [8]) of 0.96.
“variant CD80 E35D/M47V/N48T/L85Q (Fc fusion)” gave an MFI at 33.3 nM (CD28 (human) [4]) of 692 MFI and an MFI at 33.3 nM (PD-L1 (human) [6]) of 35500 MFI.
Work on ICOSL-Fc N52R/N57Y/Q100P (Fc fusion) yielded an MFI [1] of 502000 MFI and an MFI (CD28 (human) [2]) of 133000 MFI.
Work on “variant CD80 H18Y/A26E/E35D/M47L/L85Q/D90G (Fc fusion)” yielded a Fold change to WT CD80 (CD28 (human) [4]) of 0.2 fold, an MFI at 33.3 nM (CD28 (human) [4]) of 3540 MFI and an MFI at 33.3 nM (PD-L1 (human) [6]) of 52400 MFI. It also gave a Fold change to WT CD80 (CTLA-4 (human) [5]) of 1.47 fold and an MFI at 33.3 nM (CTLA-4 (human) [5]) of 231000 MFI.
In the case of “CD80 variant E35D/M47L/A71G/L97Q IgV-Fc (Fc fusion)”, the MFI at 33.3 nM (CTLA4 (human)) is reported as 226000 MFI and the MFI at 33.3 nM (CD28 (human) [9]) is reported as 300 MFI.
“CD80 variant Q33L/E35D/M47V IgV-Fc (Fc fusion)” showed an MFI at 33.3 nM (CTLA4 (human)) of 47600 MFI and an MFI at 33.3 nM (PD-L1 (human) [10]) of 47900 MFI.
For ICOSL-Fc N52T/N57K/Q100P (Fc fusion), the MFI [1] was 78300 MFI and the MFI (CD28 (human) [2]) was 88700 MFI.
Substance “CD80 variant E24D/Q33L/E35D/M47V/K54R/L85Q IgV-Fc (Fc fusion)” has an MFI at 33.3 nM (CTLA4 (human)) of 311000 MFI and an MFI at 33.3 nM (PD-L1 (human) [10]) of 67100 MFI.
In the case of “variant CD80 V22L/Q27H/E35D/M47I/A71G (Fc fusion)”, the Fold change to WT CD80 (CD28 (human) [4]) is reported as 0.4 fold, the MFI at 33.3 nM (CD28 (human) [4]) is reported as 7270 MFI and the MFI at 33.3 nM (PD-L1 (human) [6]) is reported as 43800 MFI. It also gave a Fold change to WT CD80 (CTLA-4 (human) [5]) of 0.96 fold and an MFI at 33.3 nM (CTLA-4 (human) [5]) of 152000 MFI.
“CD80 variant E35D/M47I/K54R/L85E IgV-Fc (Fc fusion)” gave an MFI at 33.3 nM (CTLA4 (human)) of 8660 MFI and an MFI at 33.3 nM (PD-L1 (human) [10]) of 36900 MFI.
“variant CD80 E24G/L25P/L70Q/A91G/I118V/T120S/N152T (Fc fusion)” showed an MFI (CD28 (human) [7]) of 26 MFI and an MFI (CTLA-4 (human) [8]) of 38 MFI.
Substance ICOSL-Fc N52R/N57F/Q100N (Fc fusion) has an MFI [1] of 233000 MFI and an MFI (CD28 (human) [2]) of 161000 MFI.
In the case of “variant CD80 E35D/M47L/A71G/L85Q (Fc fusion)”, the MFI at 33.3 nM (CD28 (human) [4]) is reported as 1440 MFI.
With “variant CD80 R29H/E52G/D90N/I118V/T120S/T130A (Fc fusion)” the MFI (CD28 (human) [7]) was 66 MFI and the MFI (CTLA-4 (human) [8]) was 141 MFI.
Substance ICOSL-Fc N52G/N57P/Q100D (Fc fusion) has an MFI [1] of 10200 MFI and an MFI (CD28 (human) [2]) of 5720 MFI.
“variant CD80 K36E/I67T/L70Q/A91G/I118V/T120S/T130A/N152T (Fc fusion)” was tested, and the MFI (CD28 (human) [7]) was 8 MFI.
Work on “variant CD80 Q27H/E35D/D46V/M47L/A71G (Fc fusion)” yielded an MFI at 33.3 nM (CD28 (human) [4]) of 10400 MFI.
variant CD80 A91G (Fc fusion) gave an MFI (PD-L1 (human) [3]) of 85 MFI and an MFI (CTLA-4 (human) [8]) of 200 MFI.
Work on variant CD80 E35D/A71G (Fc fusion) yielded an MFI at 33.3 nM (PD-L1 (human) [6]) of 34100 MFI and an MFI at 33.3 nM (CTLA-4 (human) [5]) of 184000 MFI.
“variant CD80 L70Q/A91G/N144D (Fc fusion)” was tested, and the MFI (PD-L1 (human) [3]) was 6 MFI.
“variant CD80 E35D/M47V/A71G/E88D (Fc fusion)” gave a Fold change to WT CD80 (CD28 (human) [4]) of 0.35 fold, an MFI at 33.3 nM (CD28 (human) [4]) of 6240 MFI and a Fold change to WT CD80 (PD-L1 (human) [6]) of 3.13 fold. For the same substance, the MFI at 33.3 nM (PD-L1 (human) [6]) was 37100 MFI and the MFI at 33.3 nM (CTLA-4 (human) [5]) was 212000 MFI.
“variant CD80 M38T/L70Q/E77G/A91G/I118V/T120S/T130A/N152T (Fc fusion)” was tested, and the MFI (CD28 (human) [7]) was 61 MFI.
Work on “variant CD80 E35D/T41S/M43I/M47V/A71G (Fc fusion)” yielded an MFI at 33.3 nM (CD28 (human) [4]) of 2840 MFI and an MFI at 33.3 nM (PD-L1 (human) [6]) of 44400 MFI.
ICOSL-Fc N52H/N57Y/Q100K (Fc fusion) was tested, and the MFI (CD28 (human) [2]) was 142000 MFI and the MFI [11] was 214000 MFI.
In the case of “variant CD80 M38V/T41D/M43I/W50G/D76G/V83A/K89E/I118V/T120S/I126V/T130A (Fc fusion)”, the MFI (CD28 (human) [7]) is reported as 5 MFI.
“CD80 variant Q33R/E35D/D46E/M47I IgV-Fc (Fc fusion)” gave an MFI at 33.3 nM (CTLA4 (human)) of 3560 MFI and an MFI at 33.3 nM (CD28 (human) [9]) of 303 MFI.
In the case of ICOSL ECD-Fc N52S/T113E (Fc fusion), the MFI [12] is reported as 54 MFI.
